Results on 4 molecules are retold here after patent publication US20260234242A1 (HAINAN SIMCERE ZAIMING PHARMACEUTICAL, published 2026).

The target in assay [1] is T1, his-tagged human CDH6 extracellular region protein (hCDH6 ECD-his) (human, UniProt P55285 19-615).
T1 construct: also called Human CDH6-his; hCDH6-his; not shown: his tag
T1 sequence: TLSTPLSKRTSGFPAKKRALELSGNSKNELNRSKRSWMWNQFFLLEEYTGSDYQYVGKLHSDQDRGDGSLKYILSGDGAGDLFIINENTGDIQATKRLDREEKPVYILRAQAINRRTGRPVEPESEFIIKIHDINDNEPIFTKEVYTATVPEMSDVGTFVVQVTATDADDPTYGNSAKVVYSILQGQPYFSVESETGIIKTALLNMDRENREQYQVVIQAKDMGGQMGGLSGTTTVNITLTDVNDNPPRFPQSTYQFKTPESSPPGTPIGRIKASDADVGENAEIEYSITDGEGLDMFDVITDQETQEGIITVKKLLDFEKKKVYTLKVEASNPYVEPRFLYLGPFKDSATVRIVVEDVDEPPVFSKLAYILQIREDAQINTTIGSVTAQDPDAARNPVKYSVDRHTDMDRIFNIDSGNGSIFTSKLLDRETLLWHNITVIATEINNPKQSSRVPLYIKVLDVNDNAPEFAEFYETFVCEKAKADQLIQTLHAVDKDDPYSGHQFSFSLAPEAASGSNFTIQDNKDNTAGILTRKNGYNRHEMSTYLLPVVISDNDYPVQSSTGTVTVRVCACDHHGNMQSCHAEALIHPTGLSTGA
Description: SPR Biacore, antibody captured on Protein A. Here is the method:
(§1) The affinity of the antibody for the antigen was determined by a multi-cycle kinetic method using a BIAcore 8K instrument. In each cycle, the antibody to be tested was captured using a Protein A chip (purchased from GE, Cat. No. 29-1275-56), and then the antigen human CDH6 protein (hCDH6-his, conventionally synthesized) was injected. The association and dissociation processes of the antibody with the antigen protein were recorded, and finally, the chip was regenerated using Glycine pH 1.5, wherein the mobile phase was HBS-EP+ (10 mM HEPES, 150 mM NaCl, 3 mM EDTA, 0.05% surfactant P20, and 1 mM Ca), the flow rate was 30 μL/min, the association time was 240 s, the dissociation time was 300 s, the regeneration time was 30 s, the detection temperature was 25° C., and the antigen concentration was 31.25-1000 nM. The data were analyzed using Biacore 8K analysis software (version No. 2.0) based on the 1:1 binding model to fit the antibody-antigen binding kinetic parameters, including the association rate constant ka, the dissociation rate constant kd, and the equilibrium dissociation constant KD. The affinity values of the control antibody DS-H01L02 were undetectable. Antibodies not shown in the table had undetectable affinity values.
Four hCDH6-1 humanized antibodies with fewer back mutations were selected, and the affinity for human CDH6 protein was further confirmed using Biacore.

Assay [2] has as its target T2, human CDH6 on tumor cells (OVCAR3 cells, PA-1 cells) (human, UniProt P55285 54-790).
T2 sequence: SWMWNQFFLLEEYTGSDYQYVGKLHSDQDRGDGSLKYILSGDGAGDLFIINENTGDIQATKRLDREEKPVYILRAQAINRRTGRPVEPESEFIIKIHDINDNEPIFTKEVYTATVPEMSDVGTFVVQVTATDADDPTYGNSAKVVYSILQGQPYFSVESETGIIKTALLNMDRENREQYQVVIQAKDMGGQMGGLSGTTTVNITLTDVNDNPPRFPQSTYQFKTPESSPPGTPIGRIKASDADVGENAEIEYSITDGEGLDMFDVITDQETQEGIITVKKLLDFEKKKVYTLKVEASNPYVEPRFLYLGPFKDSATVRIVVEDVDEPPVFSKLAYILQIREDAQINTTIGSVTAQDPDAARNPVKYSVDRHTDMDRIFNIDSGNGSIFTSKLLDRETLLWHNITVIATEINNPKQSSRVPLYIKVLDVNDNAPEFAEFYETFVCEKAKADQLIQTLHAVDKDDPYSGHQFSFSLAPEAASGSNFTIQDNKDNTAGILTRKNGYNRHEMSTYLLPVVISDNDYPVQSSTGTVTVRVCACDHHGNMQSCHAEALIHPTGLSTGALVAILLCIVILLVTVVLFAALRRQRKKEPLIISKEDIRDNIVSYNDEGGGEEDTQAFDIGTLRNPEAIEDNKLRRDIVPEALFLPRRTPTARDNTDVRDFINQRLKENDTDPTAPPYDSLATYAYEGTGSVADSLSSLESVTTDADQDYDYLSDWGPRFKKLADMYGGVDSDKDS
The experiment in a line: FACS, OVCAR3 cells. An outline of the steps: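 OVCAR3 (high CDH6) and PA-1 (moderate CDH6) cells in PBS + 2% FBS were incubated with diluted chimeric antibodies for 1 h at 4° C, then with a further reagent for 1 h at 4° C. After washing, mean fluorescence intensity was read by flow cytometry and EC50 values came from curve fitting.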

The target in assay [3] is T1, his-tagged human CDH6 extracellular …. Description: SPR Biacore, antibody captured on Protein A. Here is the method:
as §1
Four hCDH6-6 humanized antibodies with fewer back mutations were selected, and the affinity for human CDH6 protein was further confirmed using Biacore.
The source holds these as a separate data set.

Read-outs that look alike come from different tables or passages of the source.

B1: CHI-CDH6-1 (antibody, human IgG1, kappa, V domains shown)
VH: QVQLQQPGAELVRPGSSVKLSCKASGYTFTNYWMHWVKQRPIEGLEWIGDIDPSHSETHYTQKFKDKATLTVDKSSSTAYMQLSSLTSEDSAVYYCARGDLGRFDYWGQGTTLTVSS
VL: DIVLTQSPASLAVSLGQRATISCRASESVSIHGTHLMHWYQQKSGQPPKLLIYAASNLESGVPARFSGSGSETDFTFNIHPVEEEDAATYFCQQSFEDPWTFGGGTKLEIKR
notes: also called CHI-hCDH6-1; CH1-CDH6-1
As for B1, in assay [1], the affinity, expressed as Kd, was 11.4 nM; the off-rate (koff) came out at 0.00504 s⁻¹; the kon stood at 442000 M⁻¹ s⁻¹.

B2: hCDH6-1-H2L3 (antibody, V domains shown)
VH: EVQLVQSGAEVKKPGSSVKVSCKASGYTFTNYWMHWVRQAPGQGLEWMGDIDPSHSETHYTQKFKDRVTITVDKSTSTAYMELSSLRSEDTAVYYCARGDLGRFDYWGQGTTVTVSS
VL: DIQMTQSPSSLSASVGDRVTITCRASESVSIHGTHLMHWYQQKPGKPPKLLIYAASNLESGVPSRFSGSGSETDFTFTISSLQPEDIATYYCQQSFEDPWTFGGGTKVEIK
notes: Humanized
B2: in assay [1], binding was put at a Kd of 18 nM, the dissociation rate constant (koff) came to 0.00821 s⁻¹ and the kon stood at 457000 M⁻¹ s⁻¹.

B3: CHI-CDH6-6 (antibody, human IgG1, kappa, V domains shown)
VH: EVQLQQSGPELVKPGDSVKMSCKASGYTFTDYYMAWVRQSHRKSLEWIGYIFPNSGGTDYSQKFKGKATLTVDKSSSTVYMELHSLTSEDSAVYYCARELGADYGDYYAMDHWGQGTSVSVSS
VL: DIQMTQSPASLSASVGETVTITCRASENIDSYLAWYQQKQGKSPQLLVYSATLLADGVPSRFSGSGSGTQYSLKINSLKSEDVARYYCQHYYRTPPTFGSGTKLEIKR
notes: also called CHI-hCDH6-6; chimeric antibody of murine CDH6-6
In the case of B3, in assay [2], a half-maximal response (EC50) required 0.68 nM and the “Max MFI” value worked out at 14100 MFI. In assay [3], this molecule registered a Kd of 87.1 nM, a dissociation rate constant (koff) of 0.00424 s⁻¹ and a kon of 48700 M⁻¹ s⁻¹.

B4: hCDH6-6-H2L2 (antibody, V domains shown)
VH: EVQLVQSGAEVKKPGASVKVSCKASGYTFTDYYMAWVRQAPGQGLEWMGYIFPNSGGTDYSQKFKGRVTLTVDKSTSTVYMELSSLRSEDTAVYYCARELGADYGDYYAMDHWGQGTTVTVSS
VL: DIQMTQSPSSLSASVGDRVTITCRASENIDSYLAWYQQKPGKSPKLLVYSATLLADGVPSRFSGSGSGTDYTLTISSLQPEDFATYYCQHYYRTPPTFGQGTKLEIK
notes: Humanized
As for B4, in assay [2], the concentration giving a half-maximal response (EC50) was determined as 0.56 nM and the “Max MFI” value amounted to 14300 MFI. In assay [3], the dissociation constant Kd is 89.8 nM, the koff was found to be 0.00468 s⁻¹ and the association rate constant (kon) turned out to be 52100 M⁻¹ s⁻¹.
